Key:
Assay in all cases: pull-down; 15 μg GST-tagged τ131 on Glutathione Sepharose 4B; 300 nM τ138 or Bdp1, or 1 μM Brf1–TBP; 50 mM Tris pH 7.5, 150 mM NaCl, 2 mM DTT, 0.1% Tween20; 4 °C, 4 h
Conditions in all cases: both partners purified
[1] = molecular target: T1, GST-tagged τ131 (1–580) L469K (S. cerevisiae, UniProt P33339 1-580, L469K)
T1 construct: τ131 (Tfc4) of S. cerevisiae TFIIIC, residues 1-580, point mutant; also called L469K mutant of τ131 (1–580); source: E. coli BL21 (DE3) Gold, purified (GST column, S200 SEC)
T1 sequence (looked up): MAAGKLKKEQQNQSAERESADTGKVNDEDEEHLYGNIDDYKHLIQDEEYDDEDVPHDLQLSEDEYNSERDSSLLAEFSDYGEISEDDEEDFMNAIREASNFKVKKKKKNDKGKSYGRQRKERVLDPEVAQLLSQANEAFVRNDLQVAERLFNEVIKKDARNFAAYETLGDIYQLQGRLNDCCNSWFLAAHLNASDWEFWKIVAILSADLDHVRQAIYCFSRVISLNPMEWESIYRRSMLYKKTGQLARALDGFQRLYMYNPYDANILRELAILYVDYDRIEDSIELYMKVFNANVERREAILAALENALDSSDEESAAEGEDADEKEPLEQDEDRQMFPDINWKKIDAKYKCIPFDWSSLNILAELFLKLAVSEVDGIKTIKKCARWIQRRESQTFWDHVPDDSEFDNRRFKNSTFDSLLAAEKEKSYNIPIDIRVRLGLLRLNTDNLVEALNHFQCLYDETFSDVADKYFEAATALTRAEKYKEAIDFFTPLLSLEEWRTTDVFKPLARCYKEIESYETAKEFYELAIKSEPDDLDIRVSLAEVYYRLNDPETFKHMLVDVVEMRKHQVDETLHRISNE

[2] = molecular target: T2, GST-tagged τ131 (1–580) D468K (S. cerevisiae, UniProt P33339 1-580, D468K)
T2 construct: τ131 (Tfc4) of S. cerevisiae TFIIIC, residues 1-580, point mutant; also called D468K mutant of τ131 (1–580); source: E. coli BL21 (DE3) Gold, purified (GST column, S200 SEC)
T2 sequence (looked up): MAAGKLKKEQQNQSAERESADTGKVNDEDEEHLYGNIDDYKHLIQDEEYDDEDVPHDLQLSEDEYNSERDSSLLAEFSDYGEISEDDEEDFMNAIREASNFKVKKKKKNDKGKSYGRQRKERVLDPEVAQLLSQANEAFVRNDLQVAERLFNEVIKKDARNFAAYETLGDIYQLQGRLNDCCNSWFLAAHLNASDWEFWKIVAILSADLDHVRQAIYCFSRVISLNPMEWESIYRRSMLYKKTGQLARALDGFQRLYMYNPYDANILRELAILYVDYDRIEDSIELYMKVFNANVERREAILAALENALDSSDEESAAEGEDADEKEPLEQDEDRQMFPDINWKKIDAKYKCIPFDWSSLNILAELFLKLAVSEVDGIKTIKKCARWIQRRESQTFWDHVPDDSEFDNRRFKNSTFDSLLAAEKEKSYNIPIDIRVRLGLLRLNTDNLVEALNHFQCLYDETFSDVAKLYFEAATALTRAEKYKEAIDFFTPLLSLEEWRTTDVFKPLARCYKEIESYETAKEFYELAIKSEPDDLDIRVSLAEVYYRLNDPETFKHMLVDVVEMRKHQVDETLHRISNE

[3] = molecular target: T3, GST-tagged τ131 (1–580), wild type (S. cerevisiae, UniProt P33339 1-580)
T3 construct: τ131 (Tfc4) of S. cerevisiae TFIIIC, residues 1-580 (extended N terminus and TPR array); also called GST-τ131 (1–580); longer τ131 protein; source: E. coli BL21 (DE3) Gold, purified (GST column, S200 SEC)
T3 sequence (looked up): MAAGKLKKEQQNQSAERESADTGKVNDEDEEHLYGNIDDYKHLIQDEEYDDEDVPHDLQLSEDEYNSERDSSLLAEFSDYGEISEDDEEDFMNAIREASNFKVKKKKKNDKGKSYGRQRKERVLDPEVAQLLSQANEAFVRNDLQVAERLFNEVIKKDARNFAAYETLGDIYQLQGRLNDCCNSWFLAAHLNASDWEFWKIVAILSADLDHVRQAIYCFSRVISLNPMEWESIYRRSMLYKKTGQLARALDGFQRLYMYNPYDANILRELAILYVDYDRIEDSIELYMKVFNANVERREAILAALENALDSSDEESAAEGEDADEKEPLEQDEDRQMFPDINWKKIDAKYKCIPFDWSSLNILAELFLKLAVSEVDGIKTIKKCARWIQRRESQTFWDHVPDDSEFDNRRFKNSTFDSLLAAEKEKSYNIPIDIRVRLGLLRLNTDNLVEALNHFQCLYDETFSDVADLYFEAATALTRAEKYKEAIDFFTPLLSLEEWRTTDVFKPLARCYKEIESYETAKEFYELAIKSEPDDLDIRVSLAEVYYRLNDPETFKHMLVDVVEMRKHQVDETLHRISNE

Measured: binding result

B1: Brf1–TBP fusion protein Brf1 (1–382)-TBP (61–240)-Brf1 (439–596) (other, UniProt P29056 1-382, looked up)
chain: MPVCKNCHGTEFERDLSNANNDLVCKACGVVSEDNPIVSEVTFGETSAGAAVVQGSFIGAGQSHAAFGGSSALESREATLNNARRKLRAVSYALHIPEYITDAAFQWYKLALANNFVQGRRSQNVIASCLYVACRKEKTHHMLIDFSSRLQVSVYSIGATFLKMVKKLHITELPLADPSLFIQHFAEKLDLADKKIKVVKDAVKLAQRMSKDWMFEGRRPAGIAGACILLACRMNNLRRTHTEIVAVSHVAEETLQQRLNEFKNTKAAKLSVQKFRENDVEDGEARPPSFVKNRKKERKIKDSLDKEEMFQTSEEALNKNPILTQVLGEQELSSKEVLFYLKQFSERRARVVERIKATNGIDGENIYHEGSENETRKRKLSESGIVPTLQNIVATVTLGCRLDLKTVALHARNAEYNPKRFAAVIMRIREPKTTALIFASGKMVVTGAKSEDDSKLASRKYARIIQKIGFAAKFTDFKIQNIVGSCDVKFPIRLEGLAFSHGTFSSYEPELFPGLIYRMVKPKIVLLIFVSGKIVLTGAKQREEIYQAFEAIYPVLSEFRKMPRNLHLLPTTDTYLSKVSDDPDNLEDVDDEELNAHLLNEEASKLKERIWIGLNADFLLEQESKRLKQEADIATGNTSVKKKRTRRRNNTRSDEPTKTVDAAAAIGLMSDLQDKSGLHAALKAAEESGDFTTADSVKNMLQKASFSKKINYDAIDGLFR
notes: Brf1, subunit of TFIIIB, residues 1-382; TBP, subunit of TFIIIB, residues 61-240; Brf1, subunit of TFIIIB, residues 439-596; source: E. coli BL21 Star (DE3) pRARE, purified (Ni-NTA, HiTrap SP); not shown: His6, C-terminal, kept
binds: [1] | [2] | [3]

Source: article PMC4490372, “Architecture of TFIIIC and its role in RNA polymerase III pre-initiation complex assembly” (Nature Communications, 2015)
